In US20260258155A1 (TRIVENI BIO, published 2026):

Tests used:
[1] = biological target: T1, mouse KLK7 (mKLK7) (mouse, UniProt Q91VE3 26-249); test: cell-based or functional assay
[2] = biological target: T1, mouse KLK7 (mKLK7); test: Biacore SPR, antibody captured on Protein A chip, single-cycle kinetics, 25 C
Experimental: All screening assays were performed at 25 C. The running buffer used was 20 mM HEPES, 300 mM NaCl, 0.01% Tween-20, pH 7.5. Antibodies (1 ug/mL) were captured on Fc2-4 of a Series S ProteinA Sensor Chip (Cytiva) flowing at 10 ul/mL for 30 s. Kinetics measurements were made in single-cycle kinetics mode with a series of 4-5 concentrations with top concentration of 25-100 nM and serial dilution 4-fold. Contact time was typically 300 s and dissociation time ranged from 1800-3600 s. Flow rate of 30 ul/mL was typically used. The sensor chip was regenerated with 10 mM glycine, pH 1.5 with a contact time of 30 s flowing at 50 ul/mL.

[3] = biological target: human KLK7 (hKLK7), active form (human, UniProt P49862 30-253); test: cell-based or functional assay
Chain of human KLK7 (hKLK7), active form (P49862 30-253): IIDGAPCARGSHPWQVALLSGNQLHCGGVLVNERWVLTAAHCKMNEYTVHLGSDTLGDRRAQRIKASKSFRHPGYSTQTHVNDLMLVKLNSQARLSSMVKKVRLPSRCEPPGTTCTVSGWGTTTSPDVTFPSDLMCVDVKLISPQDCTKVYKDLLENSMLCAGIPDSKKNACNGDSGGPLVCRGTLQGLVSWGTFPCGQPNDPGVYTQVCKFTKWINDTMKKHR

T1 sequence (Q91VE3 26-249 limits assumed): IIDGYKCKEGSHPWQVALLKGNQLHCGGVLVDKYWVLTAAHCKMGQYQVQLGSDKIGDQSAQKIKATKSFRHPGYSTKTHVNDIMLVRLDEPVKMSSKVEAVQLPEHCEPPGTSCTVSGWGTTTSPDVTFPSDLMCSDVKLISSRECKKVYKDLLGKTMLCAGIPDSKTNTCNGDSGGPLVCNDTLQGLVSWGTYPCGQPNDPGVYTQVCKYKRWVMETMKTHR

Binder | mKLK7 IC50 (protease inhibition) [1] | mKLK7 IC90 (protease inhibition) [1] | Kd [2] | hKLK7 IC50 (protease inhibition) [3] | hKLK7 IC90 (protease inhibition) [3]
KLK7-L5-Ab1 (antibody, V domains shown) VH: not shown VL: EIVLTQSPGTLSLSPGERATLSCRASQSVSSDYLAWYQQKPGQAPRLLIYGASSRATGIPDRFSGSGSGTDFTLTISRLEPEDFAVYYCQQYANLWTFGGGTKVEIK | 15 nM | 67.3 nM | 4.86 nM | – | –
KLK7-L5-Ab2 (antibody, V domains shown) VH: QVQLVQSGAEVKKPGASVKVSCKASGYTFAGYDMHWVRQAPGQGLEWMGSINPTSGRTNYAQKFQGRVTMTRDTSISTAYMELSRLRSDDTAVYYCARGGPSTWYGGSAYTYYGADVWGQGTTVTVSS VL: EIVLTQSPGTLSLSPGERATLSCRASQSVSSDYLAWYQQKPGQAPRLLIYGASSRATGIPDRFSGSGSGTDFTLTISRLEPEDFAVYYCQQYAPLWTFGGGTKVEIK | 1.48 nM | 26.5 nM | 0.0253 nM | – | –
KLK7-L3-Ab2 (antibody, V domains shown) VH: QVQLVQSGAEVKKPGSSVKVSCKASGGTFNNYAISWVRQAPGQGLEWMGAIIPIFGVANYAQKFQGRVTITADESTSTAYMELSSLRSEDTAVYYCARGAPNYYGAQSSRGIAFDIWGQGTMVTVSS VL: DIQMTQSPSSVSASVGDRVTITCRASQGISSWLAWYQQKPGKAPKLLIYAASSLQSGVPSRFSGSGSGTDFTLTISSLQPEDFATYYCVQANAFPYKFGGGTKVEIK | 2.68 nM | 11.5 nM | 0.125 nM | 0.802 nM | 4.43 nM
KLK7-L3-Ab3 (antibody, V domains shown) VH: QVQLVQSGAEVKKPGSSVKVSCKASGGTFSSHAITWVRQAPGQGLEWMGGIIPIFGFANYAQKFQGRVTITADESTSTAYMELSSLRSEDTAVYYCARGAPNYYGSASSRGIAFDIWGQGTMVTVSS VL: DIQMTQSPSSVSASVGDRVTITCRASQGISSWLAWYQQKPGKAPKLLIYAASSLQSGVPSRFSGSGSGTDFTLTISSLQPEDFATYYCVQANAFPYSFGGGTKVEIK | 3.34 nM | 11.4 nM | 0.217 nM | 1.4 nM | 8.25 nM
KLK7-L4-Ab2 (antibody, V domains shown) VH: QLQLQESGPGLVKPSETLSLTCTVSGGSISSSPYNWVWIRQPPGKGLEWIGSILHSGSTYYNPSLKSRVTISVDTSKNQFSLKLSSVTAADTAVYYCARGVPTYWGAASHYYYYMDVWGKGTTVTVSS VL: DIQMTQSPSTLSASVGDRVTITCRASQSISSWLAWYQQKPGKAPKLLIYKASSLESGVPSRFSGSGSGTEFTLTISSLQPDDFATYYCEQYGSESPLTFGGGTKVEIK | 2.42 nM | 9.04 nM | 0.0266 nM | 1.42 nM | 6.34 nM
KLK7-L1-Ab4 (antibody, V domains shown) VH: QVQLVQSGAEVKKPGASVKVSCKASGYTFTSEGIHWVRQAPGQGLEWMGSISASSGDTNYAQKLQGRVTMTTDTSTSTAYMELRSLRSDDTAVYYCARAAGYGARHWYFDLWGQGTMVTVSS VL: DIQMTQSPSSLSASVGDRVTITCRASQSISSYLNWYQQKPGKAPKLLIYGASSLQSGVPSRFSGSGSGTDFTLTISSLQPEDFATYYCDQFYSTPPITFGGGTKVEIK | 1.42 nM | 7.12 nM | 0.0107 nM | 0.914 nM | 3.67 nM
KLK7-L1-Ab6 (antibody, V domains shown) VH: QVQLVQSGAEVKKPGASVKVSCKASGYTFTSEGIHWVRQAPGQGLEWMGSISASSGDTNYAQKLQGRVTMTTDTSTSTAYMELRSLRSDDTAVYYCARAAGYGARSWYFDLWGQGTMVTVSS VL: DIQMTQSPSSLSASVGDRVTITCRASQSISSYLNWYQQKPGKAPKLLIYGASSLQSGVPSRFSGSGSGTDFTLTISSLQPEDFATYYCDQFYSTPPITFGGGTKVEIK | 1.25 nM | 4.58 nM | 0.0144 nM | – | –
KLK7-L1-Ab7 (antibody, V domains shown) VH: QVQLVQSGAEVKKPGASVKVSCKASGYTFTSEGIHWVRQAPGQGLEWMGSISASSGDTNYAQKLQGRVTMTTDTSTSTAYMELRSLRSDDTAVYYCARGAGYGARDWYFDLWGQGTMVTVSS VL: DIQMTQSPSSLSASVGDRVTITCRASQSISSYLNWYQQKPGKAPKLLIYGASSLQSGVPSRFSGSGSGTDFTLTISSLQPEDFATYYCDQRYSTPPITFGGGTKVEIK | 1.06 nM | 5.03 nM | 0.0302 nM | – | –
KLK7-L1-Ab1 (antibody, V domains shown) VH: QVQLVQSGAEVKKPGSSVKVSCKASGGTFSNYAISWVRQAPGQGLEWMGWISAYSGDTNYAQKLQGRVTMTTDTSTSTAYMELRSLRSDDTAVYYCARAAGYGARHWYFDLWGQGTMVTVSS VL: not shown | 0.5 nM | 108 nM | 1.62 nM | – | –
KLK7-L1-Ab2 (antibody, V domains shown) VH: QVQLVQSGAEVKKPGASVKVSCKASGYTFGPYGISWVRQAPGQGLEWMGWISAYSGDTNYAQKLQGRVTMTTDTSTSTAYMELRSLRSDDTAVYYCARAAGYGARWWYFDLWGQGTMVTVSS VL: DIQMTQSPSSLSASVGDRVTITCRASQSISSYLNWYQQKPGKAPKLLIYGASSLQSGVPSRFSGSGSGTDFTLTISSLQPEDFATYYCDGSYSTPPITFGGGTKVEIK | 3.42 nM | 19.8 nM | 0.0354 nM | 1.69 nM | 6.11 nM
KLK7-L1-Ab3 (antibody, V domains shown) VH: QVQLVQSGAEVKKPGASVKVSCKASGYTFTSEGIHWVRQAPGQGLEWMGSISASSGDTNYAQELQGRVTMTTDTSTSTAYMELRSLRSDDTAVYYCARAAGYGARHWYFDLWGQGTMVTVSS VL: DIQMTQSPSSLSASVGDRVTITCRASQSISSYLNWYQQKPGKAPKLLIYGASSLQSGVPSRFSGSGSGTDFTLTISSLQPEDFATYYCDQFYSTPPITFGGGTKVEIK | 1.46 nM | 6.45 nM | 0.0402 nM | 1.2 nM | 5.03 nM
KLK7-L1-Ab5 (antibody, V domains shown) VH: QVQLVQSGAEVKKPGASVKVSCKASGYTFTSEGIHWVRQAPGQGLEWMGSISASSGDTNYAQKLQGRVTMTTDTSTSTAYMELRSLRSDDTAVYYCARAAGYGARHWYFDLWGQGTMVTVSS VL: DIQMTQSPSSLSASVGDRVTITCRASQSISSYLNWYQQKPGKAPKLLIYGASSLQSGVPSRFSGSGSGTDFTLTISSLQPEDFATYYCDQWYSTPPITFGGGTKVEIK | 1.35 nM | 7.25 nM | 0.017 nM | 1.23 nM | 4.66 nM
KLK7-L2-Ab2 (antibody, V domains shown) VH: QVQLQESGPGLVKPSQTLSLTCTVSGGSISSGGYYWHWIRQHPGKGLEWIGYIYRSGYTYYNPSLKSRVTISVDTSKNQFSLKLSSVTAADTAVYYCARAKQLTTHRYFDYWGQGTLVTVSS VL: not shown | 2.31 nM | 6.01 nM | 0.0357 nM | – | –
KLK7-L2-Ab3 (antibody, V domains shown) VH: QVQLQESGPGLVKPSQTLSLTCTVSGGSISSGGYSWNWIRQHPGKGLEWIGSIYRSGSTYYNPSLKSRVTISVDTSKNQFSLKLSSVTAADTAVYYCARAKALTTHRYVDYWGQGTLVTVSS VL: not shown | 1.49 nM | 4.88 nM | – | 0.833 nM | 3.39 nM
KLK7-L2-Ab1 (antibody, V domains shown) VH: QVQLQESGPGLVKPSQTLSLTCTVSGGSISSGGYYWSWIRQHPGKGLEWIGSIYYSGSTYYNPSLKSRVTISVDTSKNQFSLKLSSVTAADTAVYYCARAKQLTTHRYFDYWGQGTLVTVSS VL: not shown | – | 5.63 nM | 0.0796 nM | – | –
KLK7-L2-Ab5 (antibody, V domains shown) VH: QVQLQESGPGLVKPSQTLSLTCTVSGGSISSGGYYWHWIRQHPGKGLEWIGYIYRSGYTYYNPSLKSRVTISVDTSKNQFSLKLSSVTAADTAVYYCARAKQLTTSRYFDYWGQGTLVTVSS VL: not shown | 1.91 nM | 6.52 nM | 0.018 nM | – | –
KLK7-L2-Ab4 (antibody, V domains shown) VH: QVQLQESGPGLVKPSQTLSLTCTVSGGSISSGGYSWNWIRQHPGKGLEWIGSIYRSGSTYYNPSLKSRVTISVDTSKNQFSLKLSSVTAADTAVYYCARAKQLTLTRYFDYWGQGTLVTVSS VL: not shown | 1.63 nM | 6.51 nM | 0.0101 nM | – | –
